{
  "source": "paper PMC8960874",
  "about": "(Nature Communications, 2022)",
  "target": "T1, WT ectodomain of the SARS-CoV-2 spike trimer (SARS-CoV-2, original …, stabilised)",
  "T1 construct": "also called S trimer; prefusion spike trimer ectodomain",
  "assay": "cryo-EM structure",
  "conditions": "both partners purified",
  "data": [
    {"binder": "Clone 2 Fab (Fab, V domains shown, also called Fab2; Fab clone 2) VH: EVQLQQSGPELVKPGASVKISCKASGYSFTGYSMNWMKQSPEKSLEWIGEINPSTGGTTDNQKFKAKATLTVDKSSSTAYMQLKSLTSEDSAVYYCARSRGDYWGQGTSVTVSS VL: DIVLTQSPASLAVSLGQRATISCRASESVEYYGTSLMQWYQQKPGQPPKVLIYAASNVESGVPARFSGSGSGTDFSLNIHPVEEDDIAMYFCQQSRKVPWTFGGGTKLEIK", "values": [
      {"measurement": "stoichiometry N", "value": "3 Fab molecules per S trimer"}
    ]},
    {"binder": "Clone 6 Fab (Fab, V domains shown, also called Fab6; Fab clone 6) VH: QVQLQQSAAELARPGASVKMSCKASGYTFTSYTMHWVKQRPGQGLEWIGYINPTSGYTEYNQNFKDKTTLTADKSSSTAYMQLNSLTSEDSAVYYCAREGHRVGPAYWGQGTLVTVSA VL: not shown", "values": [
      {"measurement": "stoichiometry N", "value": "3 Fab molecules per S trimer"}
    ]}
  ]
}
